Assay results: the supplement of paper PMC9112550, “Optimization of the antimicrobial peptide Bac7 by deep mutational scanning” (BMC Biology, 2022)

test system: Escherichia coli TOP10; assay: shrunken log2 fold change of peptide-encoding DNA abundance (4.5 h post-induction vs induction); higher = less antimicrobial activity (less host growth inhibition); conditions: time post-induction: 4.5 h; library: site-saturation at positions 5, 18, 19, 20
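Further: peptides expressed intracellularly from a pBAD plasmid library in pooled LB shake-flask culture, induced with 0.3% L-arabinose, DNA abundance read by NGS, three biological replicates, DESeq2 with apeglm shrinkage.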

Row | Sequence | shrunken log2 fold change
1 | RRIRGRPPRLPRPRPRPAKYPRP | 0.155
2 | RRIRGRPPRLPRPRPRPANWPRP | 0.731
3 | RRIRGRPPRLPRPRPRPAPCPRP | 0.426
4 | RRIRGRPPRLPRPRPRPAQFPRP | 0.199
5 | RRIRGRPPRLPRPRPRPARLPRP | 0.678
6 | RRIRGRPPRLPRPRPRPASMPRP | 0.548
7 | RRIRGRPPRLPRPRPRPASPPRP | 0.323
8 | RRIRGRPPRLPRPRPRPATHPRP | 0.862
9 | RRIRGRPPRLPRPRPRPATQPRP | 0.631
10 | RRIRGRPPRLPRPRPRPAVFPRP | 0.878
11 | RRIRGRPPRLPRPRPRPAVGPRP | 1.77
12 | RRIRGRPPRLPRPRPRPAVLPRP | 0.394
13 | RRIRGRPPRLPRPRPRPAVVPRP | 0.488
14 | RRIRGRPPRLPRPRPRPCEAPRP | 0.838
15 | RRIRGRPPRLPRPRPRPCEKPRP | 0.797
16 | RRIRGRPPRLPRPRPRPCFNPRP | 0.436
17 | RRIRGRPPRLPRPRPRPCGDPRP | 0.581
18 | RRIRGRPPRLPRPRPRPCGLPRP | 0.641
19 | RRIRGRPPRLPRPRPRPCIKPRP | 0.268
20 | RRIRGRPPRLPRPRPRPCKDPRP | -0.0805
21 | RRIRGRPPRLPRPRPRPCMQPRP | -0.0315
22 | RRIRGRPPRLPRPRPRPCNNPRP | 0.0304
23 | RRIRGRPPRLPRPRPRPCQDPRP | -0.233
24 | RRIRGRPPRLPRPRPRPCQNPRP | 0.0697
25 | RRIRGRPPRLPRPRPRPCQQPRP | 0.0696

Row | Sequence | shrunken log2 fold change
26 | RRIRGRPPRLPRPRPRPCQSPRP | 0.108
27 | RRIRGRPPRLPRPRPRPCQVPRP | 0.224
28 | RRIRGRPPRLPRPRPRPCRCPRP | 0.107
29 | RRIRGRPPRLPRPRPRPCRDPRP | 0.128
30 | RRIRGRPPRLPRPRPRPCRIPRP | -0.0785
31 | RRIRGRPPRLPRPRPRPCSAPRP | 1.58
32 | RRIRGRPPRLPRPRPRPCSSPRP | -0.129
33 | RRIRGRPPRLPRPRPRPCTVPRP | 0.032
34 | RRIRGRPPRLPRPRPRPCVIPRP | 0.033
35 | RRIRGRPPRLPRPRPRPCVQPRP | 0.523
36 | RRIRGRPPRLPRPRPRPCWDPRP | 0.217
37 | RRIRGRPPRLPRPRPRPCWTPRP | 0.28
38 | RRIRGRPPRLPRPRPRPCYRPRP | -0.0861
39 | RRIRGRPPRLPRPRPRPCYVPRP | -0.0858
40 | RRIRGRPPRLPRPRPRPDCPPRP | 0.22
41 | RRIRGRPPRLPRPRPRPDCSPRP | 0.798
42 | RRIRGRPPRLPRPRPRPDDRPRP | 0.814
43 | RRIRGRPPRLPRPRPRPDEGPRP | -0.001
44 | RRIRGRPPRLPRPRPRPDERPRP | 0.104
45 | RRIRGRPPRLPRPRPRPDFFPRP | 1.1
46 | RRIRGRPPRLPRPRPRPDFLPRP | 0.318
47 | RRIRGRPPRLPRPRPRPDHLPRP | 0.117
48 | RRIRGRPPRLPRPRPRPDNHPRP | 0.125
49 | RRIRGRPPRLPRPRPRPDNWPRP | 0.347
50 | RRIRGRPPRLPRPRPRPDPQPRP | 0.694

Row | Sequence | shrunken log2 fold change
51 | RRIRGRPPRLPRPRPRPDQEPRP | 1.05
52 | RRIRGRPPRLPRPRPRPDQYPRP | -0.212
53 | RRIRGRPPRLPRPRPRPDRVPRP | 0.311
54 | RRIRGRPPRLPRPRPRPDSCPRP | 0.426
55 | RRIRGRPPRLPRPRPRPDSWPRP | 0.627
56 | RRIRGRPPRLPRPRPRPDTAPRP | 1
57 | RRIRGRPPRLPRPRPRPDVFPRP | 0.438
58 | RRIRGRPPRLPRPRPRPDWHPRP | 0.238
59 | RRIRGRPPRLPRPRPRPEALPRP | 1.33
60 | RRIRGRPPRLPRPRPRPECLPRP | 0.685
61 | RRIRGRPPRLPRPRPRPECRPRP | 1.32
62 | RRIRGRPPRLPRPRPRPEDGPRP | 1.31
63 | RRIRGRPPRLPRPRPRPEDQPRP | 0.0373
64 | RRIRGRPPRLPRPRPRPEGDPRP | 1.94
65 | RRIRGRPPRLPRPRPRPEHNPRP | 0.327
66 | RRIRGRPPRLPRPRPRPEIIPRP | 1.5
67 | RRIRGRPPRLPRPRPRPEKRPRP | 0.993
68 | RRIRGRPPRLPRPRPRPELCPRP | 0.18
69 | RRIRGRPPRLPRPRPRPELDPRP | 0.807
70 | RRIRGRPPRLPRPRPRPELNPRP | 0.724
71 | RRIRGRPPRLPRPRPRPELSPRP | 0.169
72 | RRIRGRPPRLPRPRPRPELTPRP | 2.02
73 | RRIRGRPPRLPRPRPRPEMCPRP | 1.4
74 | RRIRGRPPRLPRPRPRPENIPRP | 0.204
75 | RRIRGRPPRLPRPRPRPENNPRP | 0.502

Row | Sequence | shrunken log2 fold change
76 | RRIRGRPPRLPRPRPRPENQPRP | 0.534
77 | RRIRGRPPRLPRPRPRPEPQPRP | 1.41
78 | RRIRGRPPRLPRPRPRPESHPRP | 0.124
79 | RRIRGRPPRLPRPRPRPESSPRP | 1.26
80 | RRIRGRPPRLPRPRPRPESTPRP | 1.63
81 | RRIRGRPPRLPRPRPRPEYGPRP | -0.0112
82 | RRIRGRPPRLPRPRPRPEYTPRP | 0.335
83 | RRIRGRPPRLPRPRPRPFATPRP | 2.68
84 | RRIRGRPPRLPRPRPRPFDFPRP | 0.26
85 | RRIRGRPPRLPRPRPRPFDIPRP | 0.198
86 | RRIRGRPPRLPRPRPRPFEHPRP | 0.212
87 | RRIRGRPPRLPRPRPRPFFIPRP | 0.0612
88 | RRIRGRPPRLPRPRPRPFFWPRP | 0.499
89 | RRIRGRPPRLPRPRPRPFHKPRP | -0.411
90 | RRIRGRPPRLPRPRPRPFIKPRP | -0.484
91 | RRIRGRPPRLPRPRPRPFKHPRP | -0.527
92 | RRIRGRPPRLPRPRPRPFKWPRP | -0.0584
93 | RRIRGRPPRLPRPRPRPFLNPRP | 0.18
94 | RRIRGRPPRLPRPRPRPFLSPRP | 0.162
95 | RRIRGRPPRLPRPRPRPFPEPRP | 0.56
96 | RRIRGRPPRLPRPRPRPFPIPRP | 0.21
97 | RRIRGRPPRLPRPRPRPFPNPRP | 0.26
98 | RRIRGRPPRLPRPRPRPFPVPRP | 0.291
99 | RRIRGRPPRLPRPRPRPFQYPRP | 0.105
100 | RRIRGRPPRLPRPRPRPFSCPRP | -0.262

Row | Sequence | shrunken log2 fold change
101 | RRIRGRPPRLPRPRPRPFWIPRP | -0.432
102 | RRIRGRPPRLPRPRPRPGAVPRP | 0.961
103 | RRIRGRPPRLPRPRPRPGCHPRP | 0.549
104 | RRIRGRPPRLPRPRPRPGCIPRP | 0.445
105 | RRIRGRPPRLPRPRPRPGCQPRP | 1.17
106 | RRIRGRPPRLPRPRPRPGDFPRP | 0.00388
107 | RRIRGRPPRLPRPRPRPGDHPRP | 0.333
108 | RRIRGRPPRLPRPRPRPGICPRP | 0.808
109 | RRIRGRPPRLPRPRPRPGIYPRP | 0.641
110 | RRIRGRPPRLPRPRPRPGKRPRP | 0.249
111 | RRIRGRPPRLPRPRPRPGLIPRP | -0.0196
112 | RRIRGRPPRLPRPRPRPGLLPRP | 0.791
113 | RRIRGRPPRLPRPRPRPGLQPRP | 0.236
114 | RRIRGRPPRLPRPRPRPGMTPRP | 0.792
115 | RRIRGRPPRLPRPRPRPGPAPRP | 1.02
116 | RRIRGRPPRLPRPRPRPGRGPRP | 0.773
117 | RRIRGRPPRLPRPRPRPGRSPRP | 0.85
118 | RRIRGRPPRLPRPRPRPGSDPRP | 1.06
119 | RRIRGRPPRLPRPRPRPGTPPRP | 0.919
120 | RRIRGRPPRLPRPRPRPGVDPRP | 0.951
121 | RRIRGRPPRLPRPRPRPGWCPRP | 0.484
122 | RRIRGRPPRLPRPRPRPGWGPRP | 0.73
123 | RRIRGRPPRLPRPRPRPHALPRP | 0.0818
124 | RRIRGRPPRLPRPRPRPHATPRP | 1.35
125 | RRIRGRPPRLPRPRPRPHCFPRP | 0.233

Row | Sequence | shrunken log2 fold change
126 | RRIRGRPPRLPRPRPRPHCWPRP | 0.69
127 | RRIRGRPPRLPRPRPRPHDPPRP | 0.546
128 | RRIRGRPPRLPRPRPRPHFMPRP | 0.152
129 | RRIRGRPPRLPRPRPRPHHFPRP | -0.0789
130 | RRIRGRPPRLPRPRPRPHHPPRP | 1.21
131 | RRIRGRPPRLPRPRPRPHIHPRP | -0.0259
132 | RRIRGRPPRLPRPRPRPHIPPRP | -0.101
133 | RRIRGRPPRLPRPRPRPHKGPRP | -0.136
134 | RRIRGRPPRLPRPRPRPHKIPRP | 0.11
135 | RRIRGRPPRLPRPRPRPHLGPRP | 0.427
136 | RRIRGRPPRLPRPRPRPHLRPRP | -0.148
137 | RRIRGRPPRLPRPRPRPHMPPRP | -0.0535
138 | RRIRGRPPRLPRPRPRPHMQPRP | -0.121
139 | RRIRGRPPRLPRPRPRPHNVPRP | 0.0498
140 | RRIRGRPPRLPRPRPRPHQAPRP | 0.354
141 | RRIRGRPPRLPRPRPRPHQLPRP | 0.339
142 | RRIRGRPPRLPRPRPRPHRGPRP | 0.0302
143 | RRIRGRPPRLPRPRPRPHRQPRP | 0.0397
144 | RRIRGRPPRLPRPRPRPHVLPRP | -0.00476
145 | RRIRGRPPRLPRPRPRPIDLPRP | 0.00416
146 | RRIRGRPPRLPRPRPRPIDRPRP | 0.127
147 | RRIRGRPPRLPRPRPRPIECPRP | 0.146
148 | RRIRGRPPRLPRPRPRPIEPPRP | 0.491
149 | RRIRGRPPRLPRPRPRPIEVPRP | 0.289
150 | RRIRGRPPRLPRPRPRPIFYPRP | 0.0354
